Biological target: human 6His-14-3-3ζ (human) (UniProt P63104)
Test: pull-down; 6His-14-3-3ζ (0.1 mg) immobilised on Ni-NTA resin, 300 μL lysate of HEK293 cells expressing SNAP-TM reporters overnight at 4°C, 1% Triton X-100 in PBS with 25 mM imidazole; blot for the SNAP-tag, amount pulled down normalised to CT_(598-910), CT_(731-910) or untreated control; in some samples cells were treated before lysis with staurosporine (three hours) or more specific kinase inhibitors

Sequence of UniProt P63104 (P63104 whole entry): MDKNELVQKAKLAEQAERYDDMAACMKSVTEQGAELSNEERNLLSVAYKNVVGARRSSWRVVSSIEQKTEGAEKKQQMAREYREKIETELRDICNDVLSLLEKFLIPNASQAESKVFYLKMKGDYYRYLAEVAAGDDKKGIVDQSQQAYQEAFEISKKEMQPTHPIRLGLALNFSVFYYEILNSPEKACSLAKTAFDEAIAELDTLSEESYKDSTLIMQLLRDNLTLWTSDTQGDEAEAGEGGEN

Row | fold of reporter pulled down compared to CT (598-910) | Substance | also measured
1 | 1.39 fold | SNAP-TM-HCN1CT reporter CT_(731-910) (from UniProt O88704 731-910) (domain or fragment) | fold of reporter pulled down from cells treated with the PKC inhibitor bisindolylmaleimide I compared to untreated control: 0.61 fold; fold of reporter pulled down from cells treated with the p38MAPK inhibitor PD 169316 compared to untreated control: 0.61 fold; fold of reporter pulled down from staurosporine-treated cells compared to untreated control: 0.26 fold
2 | – | SNAP-TM-HCN1CT reporter CT_(731-910; S810A; S867A) (from UniProt O88704 731-910) (domain or fragment) | fold of reporter pulled down compared to CT (731-910): 0.33 fold
3 | – | SNAP-TM-HCN1CT reporter CT_(731-910; Δ804–814; Δ861–871) (from UniProt O88704 731-910) (domain or fragment) | fold of reporter pulled down compared to CT (731-910): 0.26 fold
4 | 1.18 fold | SNAP-TM-HCN1CT reporter lacking the distal 30 amino acid block with the TRIP8b-tripeptide binding site (from UniProt O88704 598-880) (domain or fragment) | –
5 | 0.23 fold | SNAP-TM-HCN1CT reporter serially truncated to also lack the region containing peptide B (residues 790-820) (from UniProt O88704 598-790) (domain or fragment) | –
6 | 0.61 fold | SNAP-TM-HCN1CT reporter serially truncated to lack the region containing peptide C (amino acids 850-880) (from UniProt O88704 598-850) (domain or fragment) | –
7 | 0.2 fold | SNAP-TM-HCN1CT reporter with loss of residues 803-910 (from UniProt O88704 598-802) (domain or fragment) | –

Source: paper PMC9182292
